In PMC2873289, “A Helix Replacement Mechanism Directs Metavinculin Functions” (PLoS ONE, 2010):

Target: T1, metavinculin-ΔH1 (lacking residues 895–915) (human, UniProt P18206 1-1134, lacking residues 895–915)
T1 construct: human metavinculin, full length (1-1,134) lacking residues 895-915 (α-helix H1): 1-894 joined to 916-1,134; also called MV-ΔH1; source: E. coli BL21-DE3, purified (as full-length metavinculin); not shown: His8, N-terminal, kept
T1 sequence (looked up): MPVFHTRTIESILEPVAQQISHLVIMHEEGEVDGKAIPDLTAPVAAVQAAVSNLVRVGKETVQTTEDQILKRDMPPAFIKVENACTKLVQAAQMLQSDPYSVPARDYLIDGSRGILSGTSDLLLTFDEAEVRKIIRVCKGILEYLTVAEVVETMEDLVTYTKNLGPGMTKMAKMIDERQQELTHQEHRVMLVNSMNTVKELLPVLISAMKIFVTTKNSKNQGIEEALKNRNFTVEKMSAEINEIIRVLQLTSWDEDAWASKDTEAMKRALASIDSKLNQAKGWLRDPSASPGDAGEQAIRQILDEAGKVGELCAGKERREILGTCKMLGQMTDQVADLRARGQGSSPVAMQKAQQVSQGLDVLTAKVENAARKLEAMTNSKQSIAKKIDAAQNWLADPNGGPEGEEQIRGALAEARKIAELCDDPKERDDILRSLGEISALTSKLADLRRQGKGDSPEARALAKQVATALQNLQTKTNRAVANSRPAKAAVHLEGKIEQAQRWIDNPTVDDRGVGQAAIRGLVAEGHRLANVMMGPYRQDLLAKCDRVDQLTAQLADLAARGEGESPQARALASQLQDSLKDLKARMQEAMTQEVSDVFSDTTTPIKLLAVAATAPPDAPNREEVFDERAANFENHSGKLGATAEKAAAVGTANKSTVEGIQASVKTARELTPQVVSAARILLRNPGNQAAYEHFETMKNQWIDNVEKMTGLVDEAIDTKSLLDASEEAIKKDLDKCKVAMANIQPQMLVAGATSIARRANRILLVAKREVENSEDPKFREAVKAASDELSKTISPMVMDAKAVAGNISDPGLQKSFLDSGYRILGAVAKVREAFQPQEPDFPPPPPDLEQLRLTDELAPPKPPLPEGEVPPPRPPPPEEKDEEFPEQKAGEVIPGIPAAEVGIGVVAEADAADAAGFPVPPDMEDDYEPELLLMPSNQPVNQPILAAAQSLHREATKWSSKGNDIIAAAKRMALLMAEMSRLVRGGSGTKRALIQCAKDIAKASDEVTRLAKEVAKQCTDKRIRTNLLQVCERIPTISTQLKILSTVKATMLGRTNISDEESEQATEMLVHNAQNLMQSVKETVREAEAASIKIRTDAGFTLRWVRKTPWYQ
Assay: pull-down; GST-Vt (0.5 µM) on GST-Sepharose beads, with or without pre-incubation with 5 µM PIP2; 15 µM His8-tagged metavinculin or deletion mutant pre-activated with talin-VBS3, 1 hr 37°C; 20 mM Tris-HCl pH 8, 150 mM NaCl; eluted with glutathione, SDS-PAGE, Western blot
Settings: both partners purified

binding result: binds
B1: GST tagged vinculin tail domain (GST-Vt; residues 879–1,066) (domain or fragment, human, UniProt P18206-2 879-1066, looked up)
chain: EEKDEEFPEQKAGEVINQPMMMAARQLHDEARKWSSKGNDIIAAAKRMALLMAEMSRLVRGGSGTKRALIQCAKDIAKASDEVTRLAKEVAKQCTDKRIRTNLLQVCERIPTISTQLKILSTVKATMLGRTNISDEESEQATEMLVHNAQNLMQSVKETVREAEAASIKIRTDAGFTLRWVRKTPWYQ
notes: human vinculin tail domain, residues 879-1,066 of vinculin (1,066-residue isoform), cloned in pGEX-4T-1; source: E. coli BL21-DE3, purified (GSTrap FF, Superdex 75)
